Holding throughout (conditions): label: fluorescein-dT at N (position 34); hairpin with 5' overhang
Series [1] deals with T1, Bst DNA polymerase D480R (LR1; D775R in full-length numbering) (D480R).
T1 chain: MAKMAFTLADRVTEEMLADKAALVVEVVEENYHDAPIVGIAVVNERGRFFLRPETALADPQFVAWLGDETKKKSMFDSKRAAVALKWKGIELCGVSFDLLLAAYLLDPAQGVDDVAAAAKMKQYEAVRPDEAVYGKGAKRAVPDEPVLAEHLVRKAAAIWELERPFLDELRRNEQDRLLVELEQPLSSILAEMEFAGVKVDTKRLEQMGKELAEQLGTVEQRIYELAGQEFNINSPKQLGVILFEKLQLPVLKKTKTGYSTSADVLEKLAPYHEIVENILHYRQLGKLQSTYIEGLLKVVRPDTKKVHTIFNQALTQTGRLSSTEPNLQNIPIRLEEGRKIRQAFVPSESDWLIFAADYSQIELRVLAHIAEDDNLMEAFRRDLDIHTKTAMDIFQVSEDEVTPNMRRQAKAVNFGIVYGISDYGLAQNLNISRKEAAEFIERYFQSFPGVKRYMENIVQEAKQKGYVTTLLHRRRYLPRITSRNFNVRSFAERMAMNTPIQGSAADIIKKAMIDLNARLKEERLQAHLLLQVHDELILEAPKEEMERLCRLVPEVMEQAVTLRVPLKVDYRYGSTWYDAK
Briefly: fluorescence dissociation with excess hairpin oligo 173 competitor (SEQ 22); 30 mM Tris pH 7.5, 20 mM NaCl; mutant dissociates slower. Here is the method:
(§1) To perform the assay, reactions (75 μl) containing 30 mM Tris (pH 7.5), 20 mM NaCl, 50 nM oligo 221, and ˜10-200 nM partially polymerase samples (prepared according to Example 1) were assembled in 96-well plates. Baseline readings were then taken on the spectrophotometer using 490 nm excitation and 525 nm emission wavelengths. The 173 competitor oligo (2 μM final concentration) was then rapidly added to each well and plates were rapidly returned to the spectrophotometer for readings every 30 seconds for 5 minutes. The dissociation rate was calculated by fitting the data to a one-phase exponential decay equation using PrismGraph® according to the following formula: […]
(§2) Various exemplary mutations were introduced via site-directed mutagenesis into exemplary reference polymerases to generate modified polymerases. In this example, reference polymerase SEQ ID NO: 2 was modified to contain a further amino acid mutation (D480R). Reference polymerase SEQ ID NO: 15 was also modified to contain a further amino acid mutation (D732R). Additionally, reference polymerase SEQ ID NO: 18 was modified to contain amino acid mutation (D505R). The modified polymerases were sequence verified, and expressed essentially according to the procedure of Example 1. The modified polymerases were then assayed to measure dissociation rate constant essentially according to the procedure of Example 2.

The target in series [2] is Klenow fragment D505R (LR1) (UniProt P00582 SEQ:2-606, D505R). Described as above. Here is the method: as §1, §2
For series [3], the target named is Taq DNA polymerase D732R (LR1 Taq) (UniProt P19821 SEQ:1-832, D732R). Described as above. As for the experimental part: as §1
Chain of Taq DNA polymerase D732R (LR1 Taq) (P19821 whole entry D732R): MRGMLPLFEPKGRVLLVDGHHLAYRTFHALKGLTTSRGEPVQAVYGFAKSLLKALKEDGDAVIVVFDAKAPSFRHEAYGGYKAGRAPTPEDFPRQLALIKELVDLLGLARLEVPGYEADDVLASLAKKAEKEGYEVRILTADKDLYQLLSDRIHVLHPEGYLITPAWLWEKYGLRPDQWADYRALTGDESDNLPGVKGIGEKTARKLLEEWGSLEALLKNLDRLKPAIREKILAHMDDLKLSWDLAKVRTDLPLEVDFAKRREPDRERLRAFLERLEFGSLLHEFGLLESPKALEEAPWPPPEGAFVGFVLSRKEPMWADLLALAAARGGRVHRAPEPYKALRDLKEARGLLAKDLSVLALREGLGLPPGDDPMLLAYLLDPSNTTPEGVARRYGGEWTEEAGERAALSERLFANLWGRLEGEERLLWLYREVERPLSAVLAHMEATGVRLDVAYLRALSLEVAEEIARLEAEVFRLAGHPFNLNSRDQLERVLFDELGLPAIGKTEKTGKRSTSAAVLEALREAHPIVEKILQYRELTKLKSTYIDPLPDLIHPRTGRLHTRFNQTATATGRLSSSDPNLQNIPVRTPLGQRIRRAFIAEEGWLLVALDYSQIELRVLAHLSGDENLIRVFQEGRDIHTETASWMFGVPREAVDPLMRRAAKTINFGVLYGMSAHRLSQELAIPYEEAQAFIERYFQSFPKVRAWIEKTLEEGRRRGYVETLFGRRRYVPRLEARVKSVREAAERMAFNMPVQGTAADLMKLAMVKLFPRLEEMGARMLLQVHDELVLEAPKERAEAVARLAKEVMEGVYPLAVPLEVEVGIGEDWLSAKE
(§3) Various exemplary mutations were introduced via site-directed mutagenesis into an exemplary reference polymerase (wild-type Taq DNA polymerase SEQ ID NO: 15) to generate a series of modified Taq DNA polymerases. In this example, reference polymerase, SEQ ID NO: 15 was modified to contain a single amino acid mutation selected from D732R, E745Q or E471K. Each modified polymerase was sequence verified, and expressed essentially according to Example 1. The modified polymerases were then assayed to measure dissociation rate constant essentially according to Example 2.

Series [4] concerns the target T2, Bst DNA polymerase F448K (labelled 488K in the text for FIG. 2) (F448K).
T2 chain: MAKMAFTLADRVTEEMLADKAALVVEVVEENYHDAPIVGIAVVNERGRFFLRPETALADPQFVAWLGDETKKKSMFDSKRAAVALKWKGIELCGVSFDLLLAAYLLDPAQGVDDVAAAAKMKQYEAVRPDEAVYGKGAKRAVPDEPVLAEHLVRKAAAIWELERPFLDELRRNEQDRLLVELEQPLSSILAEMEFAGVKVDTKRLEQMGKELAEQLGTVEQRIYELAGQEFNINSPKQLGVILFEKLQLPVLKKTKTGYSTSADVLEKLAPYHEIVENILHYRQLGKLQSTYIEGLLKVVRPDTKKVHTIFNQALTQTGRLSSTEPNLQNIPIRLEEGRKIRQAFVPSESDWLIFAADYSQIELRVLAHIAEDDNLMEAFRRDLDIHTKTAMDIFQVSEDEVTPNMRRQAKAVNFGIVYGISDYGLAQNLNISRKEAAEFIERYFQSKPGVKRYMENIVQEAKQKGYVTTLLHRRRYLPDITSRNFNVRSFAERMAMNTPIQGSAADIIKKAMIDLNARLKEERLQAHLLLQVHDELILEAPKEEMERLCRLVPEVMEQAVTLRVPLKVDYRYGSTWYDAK
Briefly: dissociation time constant at varying salt; values only in figure; mutation printed as 488K and F448K. As for the experimental part:
(§4) Dissociation is measured by the decrease in fluorescence that occurs when the Bst polymerase dissociates from the template. Dissociation is initiated by adding a vast excess of unlabeled, competitor DNA (hairpin oligo 173) having the following nucleotide sequence:
as §1

In the next series the target is T3, Bst DNA polymerase G425R (G425R).
T3 chain: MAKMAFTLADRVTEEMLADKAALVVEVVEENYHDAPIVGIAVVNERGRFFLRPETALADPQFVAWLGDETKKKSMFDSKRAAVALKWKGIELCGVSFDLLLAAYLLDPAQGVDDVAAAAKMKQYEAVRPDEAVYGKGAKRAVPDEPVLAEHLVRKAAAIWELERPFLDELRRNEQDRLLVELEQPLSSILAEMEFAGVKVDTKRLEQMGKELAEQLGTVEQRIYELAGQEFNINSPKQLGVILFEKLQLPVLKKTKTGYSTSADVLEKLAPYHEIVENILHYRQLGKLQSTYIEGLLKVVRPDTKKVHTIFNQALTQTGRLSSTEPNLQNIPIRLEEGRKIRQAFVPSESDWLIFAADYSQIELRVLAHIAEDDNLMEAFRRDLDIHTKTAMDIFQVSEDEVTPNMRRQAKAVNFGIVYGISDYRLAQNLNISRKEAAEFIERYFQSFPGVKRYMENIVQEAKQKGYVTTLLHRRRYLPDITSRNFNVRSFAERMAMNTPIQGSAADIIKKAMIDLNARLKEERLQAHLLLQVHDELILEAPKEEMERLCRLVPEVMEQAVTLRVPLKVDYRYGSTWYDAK
Briefly: dissociation time constant at varying salt; values only in figure. Here is the method: as §4, §1

The next series has as its target T4, Bst DNA polymerase D144K (D144K).
T4 chain: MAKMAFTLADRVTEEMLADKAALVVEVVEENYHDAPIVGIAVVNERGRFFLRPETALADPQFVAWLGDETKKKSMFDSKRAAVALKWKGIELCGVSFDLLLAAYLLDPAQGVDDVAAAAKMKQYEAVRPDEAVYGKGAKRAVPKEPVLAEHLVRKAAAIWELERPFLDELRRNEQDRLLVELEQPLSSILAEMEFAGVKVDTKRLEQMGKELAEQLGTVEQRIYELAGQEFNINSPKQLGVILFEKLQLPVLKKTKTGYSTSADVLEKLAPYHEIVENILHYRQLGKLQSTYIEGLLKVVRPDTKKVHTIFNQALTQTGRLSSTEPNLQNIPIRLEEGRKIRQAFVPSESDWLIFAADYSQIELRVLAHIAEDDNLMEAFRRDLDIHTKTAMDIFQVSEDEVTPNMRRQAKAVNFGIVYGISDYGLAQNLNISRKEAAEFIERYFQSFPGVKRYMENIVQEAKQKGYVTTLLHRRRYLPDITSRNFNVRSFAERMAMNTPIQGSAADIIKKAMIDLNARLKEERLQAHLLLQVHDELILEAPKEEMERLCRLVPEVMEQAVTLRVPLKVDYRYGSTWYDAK
The description is as above. Here is the method: as §4, §1

Another series has as its target Taq DNA polymerase E745Q (UniProt P19821 SEQ:1-832, E745Q). Briefly: fluorescence dissociation with excess hairpin oligo 173 competitor (SEQ 22); mutant dissociates slower. Here is the method: as §1, §3
The target in a further series is Taq DNA polymerase E471K (UniProt P19821 SEQ:1-832, E471K). Described as above. As for the experimental part:
as §1, §3

Series [5] has as its target Klenow fragment (wild type) (UniProt P00582 SEQ:2-606). Briefly: reference; dissociates 13-fold faster than D505R; rate constant only in figure.
The target of series [6] is T5, Bst DNA polymerase large fragment (Bst 1.0, reference).
T5 chain: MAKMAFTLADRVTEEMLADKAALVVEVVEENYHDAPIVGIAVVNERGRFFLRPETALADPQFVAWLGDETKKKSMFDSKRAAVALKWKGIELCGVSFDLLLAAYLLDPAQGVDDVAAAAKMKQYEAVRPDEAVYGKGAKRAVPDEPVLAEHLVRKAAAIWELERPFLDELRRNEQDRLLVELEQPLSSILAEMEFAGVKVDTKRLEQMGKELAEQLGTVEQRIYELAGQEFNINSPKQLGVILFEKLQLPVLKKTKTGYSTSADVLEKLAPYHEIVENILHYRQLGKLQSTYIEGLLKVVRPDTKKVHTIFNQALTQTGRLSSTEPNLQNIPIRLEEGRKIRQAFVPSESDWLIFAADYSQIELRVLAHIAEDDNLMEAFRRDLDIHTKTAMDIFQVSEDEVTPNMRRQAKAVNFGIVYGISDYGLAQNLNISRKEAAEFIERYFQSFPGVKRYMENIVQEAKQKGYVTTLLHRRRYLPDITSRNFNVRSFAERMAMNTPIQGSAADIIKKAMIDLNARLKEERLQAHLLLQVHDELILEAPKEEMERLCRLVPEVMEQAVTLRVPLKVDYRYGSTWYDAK
Description: reference; dissociates 4.7-fold faster than D480R; rate constant only in figure.

Chain of Taq DNA polymerase E745Q (P19821 whole entry E745Q): as the sequence (P19821 whole entry D732R) above, with R732D, E745Q counted along it
Chain of Taq DNA polymerase E471K (P19821 whole entry E471K): as the sequence (P19821 whole entry D732R) above, with E471K, R732D counted along it

Regarding TTTTTTTGCAGGTGACAGGTTTTTCCTGTCACCTGC (structured_DNA, [fluorescein-dT at 34]) [oligo 221], the binding signal in [1] was 4.7 fold (koff reference/koff mutant); in series [2] it was 13 fold (koff wt/koff mutant); in [3], 14.1 fold (koff wt/koff mutant); with Taq DNA polymerase E745Q it was 4.7 fold (koff wt/koff mutant); with Taq DNA polymerase E471K, 5 fold (koff wt/koff mutant). The binding result (in [4]; with Bst DNA polymerase G425R; with Bst DNA polymerase D144K; in series [5]; in [6]) was “binds” each time.

These data come from patent publication US20150094211, “POLYMERASE COMPOSITIONS, METHODS OF MAKING AND USING SAME” (LIFE TECHNOLOGIES CORPORATION, published 2015).
